Results on 17 sequences are retold here after publication PMC7105676.

This data set deals with T1, FlhF-His6 (Campylobacter jejuni 81-176?) (UniProt O52908).
T1 sequence: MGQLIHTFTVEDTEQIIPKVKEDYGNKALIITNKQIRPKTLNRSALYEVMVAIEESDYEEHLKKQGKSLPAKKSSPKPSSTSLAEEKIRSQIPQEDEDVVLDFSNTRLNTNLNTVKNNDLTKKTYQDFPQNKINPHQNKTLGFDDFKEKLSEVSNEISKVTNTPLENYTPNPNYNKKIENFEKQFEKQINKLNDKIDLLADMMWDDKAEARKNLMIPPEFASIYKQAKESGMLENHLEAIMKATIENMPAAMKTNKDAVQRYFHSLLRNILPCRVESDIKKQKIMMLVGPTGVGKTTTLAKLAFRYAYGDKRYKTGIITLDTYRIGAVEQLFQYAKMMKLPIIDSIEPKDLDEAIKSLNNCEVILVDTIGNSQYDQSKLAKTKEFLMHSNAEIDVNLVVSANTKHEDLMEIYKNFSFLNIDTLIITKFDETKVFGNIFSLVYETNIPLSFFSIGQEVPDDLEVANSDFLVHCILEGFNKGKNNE
As to the kind of experiment: EMSA. For orientation: In EMSA bound probe runs differently from free probe, usually more slowly.
For “TGCCTGCAGGTCGACGATAAGAAATTTGGATCAACTAGCTTAAGCTTTTACGCTTCTTAACTTACTTGGAACACTTCTTGCTTGATCTATCATCAACAATAGATTAAAGGAAGAATCCA (double strand) [PflgI fragment 4]”, the binding entry is reported as “binds”.
To “TCATTTATCATTCCTCTAATAAAATCTTAAAATCATTCAAATCAAGTAAAAGCAAATTCTGTTCGCATATTTTATCAAATTCCTTGCTAAAACCATTTTTTGAGATTATAATGTAATAATTTGGAGCCAAATTTAAAGACTTTGCTTTTGATTTTAAAAGATTTAAAATATTTTTACAAATTTTTTTATTTTATCGTCGACCTGCAGGCA (double strand) [flgS promoter]” belongs “binds”.
On to “TGCCTGCAGGTCGACGATTGCAGATGCAAACATTAAAAATCCTTTAAATTTAGAATTCTTAGGTCATTTAAGCGCTTCTAAAGATGTAAGTGGTAGTATTAAAAAAAGAACTTTATTTAGCGATGAAAACACAGCCTCAAGTGATGAGATTAAAGCCCTAGCTTCCAAGCTTTTATATAGATTGGAACGGAAAGTGCTTGATA (double strand) [fliA promoter]”, for which the binding result was “binds”.
For “AATTCATCCTAAGCCTTTTAAAAAATTTCTGCTATGGTATCCAATTTGCGCTTAATTTTGAATTTACTTTTTTTTAAGTATAATAAATTATCGCATTTTGTTCGCCAAATTCCACGGTAAAACGCAAGGGTAAAATTTTGACATAAGTTTCGCTTTGGGCATGTAATAAGTCAGTATTAACAATATCCTTAACACTGATTCTAGCTCCATCGTCGACCTGCAGGCA (double strand) [flgR promoter]”, the binding entry was “no binding”.
To “TTCTTTGACTTTTTGAAAATTTTGGATTTTTTCGGGAGTTTTTATGGTTGAGTGGTGTTCAAAAATGATTAAATTTAAAGTCTTTAAATCTAAATTTTCTATCGTCGACCTGCAGGCA (double strand) [PflgI fragment 6]” belongs “no binding”; to “TGCCTGCAGGTCGACGATAGAAAATTTAGATTTAAAGACTTTAAATTTAATCATTTTTGAACACCACTCAACCATAAAAACTCCCGAAAAAATCCAAAATTTTCAAAAAGTCAAAGAAAAGAAATTTGGATCAACTAGCTTAAGCTTTTACGCTTCTTAACTTACTTGGAACACTTCTTGCTTGATCTATCATCAACAATAGATTAAAGGAAGAATCCA (double strand) [flgI promoter (PflgI, 201 bp)]”, “binds”.
To “TGGATTCTTCCTTTAATCTATTGTTGATGATAGATCAAGCAAGAAGTGTTCCAAGTAAGTTAAGAAGCGTAAAAGCTTAAGCTAGTTGATCCAAATTTCTTTTCTTTGACTTTTTGAAAATTTTGGATCGTCGACCTGCAGGCA (double strand) [PflgI fragment 3]” belongs “binds”; to “ATAACGCCATTAATCCCCACTACACCACTTTTACACATATCTTCAGAAATAGCTCTTCTTTTCGTGATATTAACTACATTTAAAAATTTATCTACTCTCATAAAAGCAATTTTAGCAAAAAAAATCAATTTTTGGAACAAAATTTGCTTATGCCTTTGCTTTATTTTTTAAGAAAATAGCAAGTAAAAACTTTTCTTTAATGAAATTTGGATACAATTTTACAATTTTCAAATCTATTTTAACAAAGGATATCGTCGACCTGCAGGCA (double strand) [rpoN promoter]”, “no binding”.
The entry for “TGCCTGCAGGTCGACGATGCTTTTACGCTTCTTAACTTACTTGGAACACTTCTTGCTTGATCTATCATCAACAATAGATTAAAGGAAGAATCCA (double strand) [PflgI fragment 5]” is “no binding”; for “TGCCTGCAGGTCGACGATAAATATCGACCTAAAGCGTAAATTTTATACCTTAAAAAGAAAAAATTATAATTTTAACAGAGCTTTAGAAAAATTTGAAAAAATATTCAAATCATAAACATAATAACCGATTTATATAGAAAGTTAAGCAATTTTTAGATAAAATCCAAAGCTTATATAAATTTCAAGGATAATCAA (double strand) [rpoD promoter]” it is “binds”; for “TGCCTGCAGGTCGACGATACCAGTTTCACCACTCGGGCTCATTTTTAAGATTTAAAGCTAAAATTATACTTTTTTAGGCTAAAAAATAACTTTAAAAATAAAAAGTATTTTCAAAAAGACGATATAAAATTATATAATTTAAATTTTTGGAACAGTTATTGCTTTTGTTTATTAGCAATATTTGAAAAGATTTTAACTTTAATACTTTAGAGGAAA (double strand) [flgL promoter]” it is “no binding”.
Consider “TGCCTGCAGGTCGACGATCAACCATAAAAACTCCCGAAAAAATCCAAAATTTTCAAAAAGTCAAAGAAAAGAAATTTGGATCAACTAGCTTAAGCTTTTACGCTTCTTAACTTACTTGGAACACTTCTTGCTTGATCTATCATCAACAATAGATTAAAGGAAGAATCCA (double strand) [PflgI fragment 2]”, for which the binding result was “binds”.
The entry for “TTTAAATCCTTTTAAATAATTTCAAACTCATCCATGAGCTTGTTAAATGCTATATCGTTACTTTTTTTAAAAATTTATACCTTAAACTAAAAAATTATAAATATCGCATTTTAATTGGAATCTGCAAATAAAAATTTCAAGCCACTGTTTATAAAATGTCAAGTATATTAATAAATACTCTCTTTCATCTTCAATTATCGTCGACCTGCAGGCA (double strand) [flaA promoter]” is “no binding”; for “AAGCTCTATCAAAAGAAGTTTTAAAAACGCATCCTTATCTAAGGTAGCGTTTGGATTGCTCACTATTCCTGAGCTACTGCTTGAATCTGTTCTAGTTGTCCCACTAGTACTTCCTGAAGAAGTAGTACCTGAAGTTGTAGCAGTGGTATTTAAATTCCAATCCGATGATGATATCATTATAAACTCCTTTTTATTTAGTTTTTTATTATTTAAGCAATAAGTGTTCCAATTATCGTCGACCTGCAGGCA (double strand) [fliK promoter]” it is “no binding”.
Take “TGCCTGCAGGTCGACGATAATTTAATCATTTTTGAACACCACTCAACCATAAAAACTCCCGAAAAAATCCAAAATTTTCAAAAAGTCAAAGAAAAGAAATTTGGATCAACTAGCTTAAGCTTTTACGCTTCTTAACTTACTTGGAACACTTCTTGCTTGATCTATCATCAACAATAGATTAAAGGAAGAATCCA (double strand) [PflgI fragment 1]”: the binding entry is given as “binds”.
For “CTTTTAAATCCTTTCAAAATATTGCATCGAAAAGATTAAAGCAAGAAGTGTTCCAAGTTTTAATTTGATTAAAAATTTTAAAGCTTATAAATAAAAAGCCTAGTATTTAAACTAGGCTTGGATTTGTATAAATTGCAGCATTCTTAAAAGAATGTAAAGTGATTTTAAGATTTAACTATTGTAATCGTCGACCTGCAGGCA (double strand) [flaB promoter]”, the binding entry is “no binding”.
Take “TGCCTGCAGGTCGACGATGGGTGTGATTTTGGTAATTTTCATTACACAAAAGACCAAAGCTTCATAAACTCCCAAAATACCTTTAAATTTTTTCTATAAATTTTTAAAAAATTTCAAAAGTTGGAACAGAACTTGCTTGTAAACTTCACATAAACGCAAAAGTTTTTTAAAGCCAAAGCGTTAAATTTTTTAAAGCAATATTTTATAAAGGATTTAAGA (double strand) [flgE promoter]”: the binding entry is reported as “no binding”.
